Laboratory results reported in publication PMC8458385, “Molecular basis for PICS-mediated piRNA biogenesis and cell division” (Nature Communications, 2021).
Numbering of substitutions follows the chain as printed. Numbers in names are those of the source.

T1: ERH-2 (C. elegans, UniProt Q20057 1-113)
T1 construct: ERH-2, C. elegans, amplified from a cDNA library; also called wild type ERH-2; source: E. coli BL21(DE3), purified (Ni-NTA, TEV, second Ni-NTA); not shown: His tag (from the Ni-NTA purification), N-terminal, cleaved
T1 sequence (looked up): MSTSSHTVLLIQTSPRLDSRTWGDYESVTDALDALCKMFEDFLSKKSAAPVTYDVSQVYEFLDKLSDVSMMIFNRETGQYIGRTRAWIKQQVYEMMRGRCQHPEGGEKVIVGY

T2: ERH-2 D67A (C. elegans, UniProt Q20057 1-113, D67A)
T2 construct: ERH-2, C. elegans, with D67A; Cloned into pET28-MHL; also called D67A(ERH-2); source: E. coli BL21(DE3), purified (Ni-NTA, TEV cleavage, second Ni-NTA); not shown: His tag (inferred from the Ni-NTA purification), N-terminal, cleaved
T2 sequence (looked up): T1 sequence (looked up) with D67A

T3: PICS-1^5-282 (almost full-length PICS-1) (C. elegans, UniProt O76616 5-282)
T3 construct: Cloned into pET28-MHL; Two copies in the 2:2:2 complex with ERH-2 and TOFU-6^RRM; source: E. coli BL21(DE3), purified (Ni-NTA, TEV cleavage, second Ni-NTA); not shown: His tag (inferred from the Ni-NTA purification), N-terminal, cleaved
T3 sequence (looked up): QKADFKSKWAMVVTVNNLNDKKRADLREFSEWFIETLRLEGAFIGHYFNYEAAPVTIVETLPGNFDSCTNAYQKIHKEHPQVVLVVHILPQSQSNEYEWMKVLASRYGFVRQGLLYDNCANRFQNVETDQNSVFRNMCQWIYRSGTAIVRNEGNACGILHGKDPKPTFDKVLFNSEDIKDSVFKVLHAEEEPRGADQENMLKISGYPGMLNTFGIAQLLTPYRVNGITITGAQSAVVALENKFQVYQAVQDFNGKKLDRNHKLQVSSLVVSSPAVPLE

T4: PICS-1^5-200 (PICS-1^ΔRRM) (C. elegans, UniProt O76616 5-200)
T4 construct: PICS-1 (PID-3), C. elegans, residues 5-200 (lacks the RRM domain); Cloned into pET28-MHL; source: E. coli BL21(DE3), purified (Ni-NTA, TEV cleavage, second Ni-NTA); not shown: His tag (inferred from the Ni-NTA purification), N-terminal, cleaved
T4 sequence (looked up): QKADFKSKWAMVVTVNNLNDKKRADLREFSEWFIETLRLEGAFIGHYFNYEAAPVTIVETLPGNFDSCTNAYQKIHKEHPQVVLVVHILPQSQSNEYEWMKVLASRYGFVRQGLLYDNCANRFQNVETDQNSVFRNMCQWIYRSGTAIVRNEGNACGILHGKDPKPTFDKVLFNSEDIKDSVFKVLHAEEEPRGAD

T5: TOFU-6^RRM D26A/W27A (C. elegans, UniProt Q09293 2-92, D26A | W27A)
T5 construct: TOFU-6, C. elegans, RRM domain, residues 2-92, with D26A and W27A; Cloned into pET28-MHL; also called D26A/W27A(TOFU-6RRM); source: E. coli BL21(DE3), purified (Ni-NTA, TEV cleavage, second Ni-NTA); not shown: His tag (inferred from the Ni-NTA purification), N-terminal, cleaved
T5 sequence (looked up): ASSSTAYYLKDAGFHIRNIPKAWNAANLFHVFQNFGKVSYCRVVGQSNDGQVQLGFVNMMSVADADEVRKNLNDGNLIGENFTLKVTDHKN

T6: PICS-1^5-282 (C. elegans, UniProt O76616 5-282)
T6 construct: Cloned into pET28-MHL; also called almost full-length PICS-1; source: E. coli BL21(DE3), purified (Ni-NTA, TEV, second Ni-NTA); not shown: His tag (from the Ni-NTA purification), N-terminal, cleaved
T6 sequence (looked up): T3 sequence (looked up)

T7: ERH-2^1-103-(Gly-Ser-Ser)7-PICS-1^180-200 fusion protein (C. elegans, UniProt Q20057 1-103; O76616 180-200)
T7 construct: ERH-2, C. elegans, residues 1-103; 21-aa linker (Gly-Ser-Ser)7; PICS-1 (PID-3), C. elegans, EBM, residues 180-200; the methods describe only the 1-103 fusion; also called ERH-2-(GSS)7-PICS-1180-200; ERH-2-(GSS)7-PICS-1; source: E. coli BL21(DE3), purified (Ni-NTA, TEV cleavage, second Ni-NTA, Superdex 75); not shown: His tag (inferred from the Ni-NTA purification), N-terminal, cleaved
T7 chain: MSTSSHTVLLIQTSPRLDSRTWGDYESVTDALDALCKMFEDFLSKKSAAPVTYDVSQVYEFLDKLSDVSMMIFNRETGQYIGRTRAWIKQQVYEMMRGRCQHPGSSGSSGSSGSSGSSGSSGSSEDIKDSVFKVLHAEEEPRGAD

B1: SUMO-fused TOST-1^34-54 (domain or fragment, C. elegans, UniProt Q18490 34-54, looked up)
chain: NKRITLNERFGVLEKGYTIQA
notes: TOST-1, C. elegans, residues 34-54; Cloned into pET28-SUMO; also called TOST-1 fragment; source: E. coli BL21(DE3), purified (Ni-NTA); not shown: SUMO, N-terminal, kept
B2: SUMO-PICS-1^180-200 (ERH-2 binding motif, EBM) (domain or fragment, C. elegans, UniProt O76616 180-200, looked up)
chain: EDIKDSVFKVLHAEEEPRGAD
notes: Fused to the C-terminus of SUMO (pET28-SUMO); the Kds are for the SUMO fusion; also called PICS-1EBM; source: E. coli BL21(DE3), purified (Ni-NTA); not shown: SUMO, N-terminal, kept
B3: ERH-2 (natural protein, C. elegans, UniProt Q20057 1-113, looked up)
chain: T1 sequence (looked up)
notes: ERH-2, C. elegans, amplified from a cDNA library; also called ERH-2 wild type; source: E. coli BL21(DE3), purified (Ni-NTA, TEV cleavage, second Ni-NTA); not shown: His tag (inferred from the Ni-NTA purification), N-terminal, cleaved
B4: PICS-1(PID-3) RRM domain (PICS-1^RRM, residues 201-282) (domain or fragment, C. elegans, UniProt O76616 201-282, looked up)
chain: QENMLKISGYPGMLNTFGIAQLLTPYRVNGITITGAQSAVVALENKFQVYQAVQDFNGKKLDRNHKLQVSSLVVSSPAVPLE
notes: Homodimer by gel filtration and in the crystal structure; The methods describe co-expression with TOFU-6^RRM from pETDuet-1 for the complex; the results say that the two domains were purified each for ITC; also called WT; source: E. coli BL21(DE3), purified (Ni-NTA, TEV cleavage, second Ni-NTA, gel filtration); not shown: His tag (inferred from the Ni-NTA purification), N-terminal, cleaved
B5: PICS-1^RRM K246A/F247A (domain or fragment, C. elegans, UniProt O76616 201-282, looked up)
chain: B4 chain with K46A, F47A
notes: Cloned into pET28-MHL; Some legends and the strain list print K245A/F246A for the transgene; also called K246A/F247A(PICS-1RRM); source: E. coli BL21(DE3), purified (Ni-NTA, TEV cleavage, second Ni-NTA); not shown: His tag (inferred from the Ni-NTA purification), N-terminal, cleaved
B6: PICS-1^RRM Y250A/Q251A (domain or fragment, C. elegans, UniProt O76616 201-282, looked up)
chain: B4 chain with Y50A, Q51A
notes: Cloned into pET28-MHL; also called Y250A/Q251A(PICS-1RRM); source: E. coli BL21(DE3), purified (Ni-NTA, TEV cleavage, second Ni-NTA); not shown: His tag (inferred from the Ni-NTA purification), N-terminal, cleaved
B7: PICS-1^RRM F217E (domain or fragment, C. elegans, UniProt O76616 201-282, looked up)
chain: B4 chain with F17E
notes: Cloned into pET28-MHL; also called F217E(PICS-1RRM); source: E. coli BL21(DE3), purified (Ni-NTA, TEV cleavage, second Ni-NTA, gel filtration); not shown: His tag (inferred from the Ni-NTA purification), N-terminal, cleaved
B8: TOFU-6 RRM domain (TOFU-6^RRM, residues 2-92) (domain or fragment, C. elegans, UniProt Q09293 2-92, looked up)
chain: T5 sequence (looked up) with A25D, A26W
notes: TOFU-6, C. elegans, RRM domain, residues 2-92; source: E. coli BL21(DE3), purified (Ni-NTA, TEV cleavage, second Ni-NTA); not shown: His tag (inferred from the Ni-NTA purification), N-terminal, cleaved
B9: TOFU-6^RRM (residues 2-92) (domain or fragment, C. elegans, UniProt Q09293 2-92, looked up)
chain: T5 sequence (looked up) with A25D, A26W
notes: TOFU-6, C. elegans, RRM domain, residues 2-92; Gene codon-optimised and synthesised; for the crystal co-expressed with PICS-1^RRM from a modified pETDuet-1; also called TOFU-6 RRM domain; TOFU-6^C; source: E. coli BL21(DE3), purified (Ni-NTA, TEV, second Ni-NTA; complex with PICS-1^RRM also Superdex 75); not shown: His tag (from the Ni-NTA purification), N-terminal, cleaved
B10: PICS-1^RRM F217E (domain or fragment, C. elegans, UniProt O76616 201-282, looked up)
chain: B4 chain with F17E
notes: Cloned into pET28-MHL; the homodimer is disrupted by the mutation; source: E. coli BL21(DE3), purified (Ni-NTA, TEV, second Ni-NTA, Superdex 75); not shown: His tag (from the Ni-NTA purification), N-terminal, cleaved
B11: SUMO-PID-1^50-70 (domain or fragment, C. elegans, UniProt Q19541 50-70, looked up)
chain: TNLHRKVTLSDRFELAALGYE
notes: PID-1, C. elegans, residues 50-70; Fused to the C-terminus of SUMO; the Kds are for the SUMO fusion; also called PID-1 fragment; source: E. coli BL21(DE3), purified (Ni-NTA); not shown: SUMO, N-terminal, kept
B12: SUMO-TOST-1^34-54 (domain or fragment, C. elegans, UniProt Q18490 34-54, looked up)
chain: NKRITLNERFGVLEKGYTIQA
notes: TOST-1, C. elegans, residues 34-54; Fused to the C-terminus of SUMO (pET28-SUMO); the Kds are for the SUMO fusion; also called TOST-1 fragment; source: E. coli BL21(DE3), purified (Ni-NTA); not shown: SUMO, N-terminal, kept

Legend:
ERH-2 [1] = molecular target: T1, ERH-2; test: ITC; MicroCal ITC200, 25 °C, 20 mM Tris pH 8.5, 200 mM NaCl or 20 mM MES pH 6.5, 200 mM NaCl; 1–2 mM in the syringe into 30–50 μM in the cell; one-site binding model; conditions: both partners purified
ERH-2 D67A = molecular target: T2, ERH-2 D67A; test: ITC; MicroCal ITC200, 25 °C; 20 mM Tris pH 8.5, 200 mM NaCl or 20 mM MES pH 6.5, 200 mM NaCl; 1-2 mM protein or peptide in the syringe titrated into 30-50 μM protein in the cell; one-site model; Kd mean ± SD of a minimum of two experiments; conditions: both partners purified
ERH-2 [2] = molecular target: B3; test: as above; conditions: both partners purified
[3] = molecular target: T3, PICS-1^5-282 (almost full-length PICS-1); test: SEC; ERH-2 and TOFU-6^RRM mixed with PICS-1 5-282, PICS-1 5-200 or PICS-1 ΔEBM; Superose 6 Increase 10/300 GL; 20 mM Tris pH 8.5, 200 mM NaCl; peaks analysed by SDS-PAGE; conditions: both partners purified
[4] = molecular target: T4, PICS-1^5-200 (PICS-1^ΔRRM); test: as above; conditions: both partners purified
[5] = molecular target: the molecule itself; test: SEC; gel filtration of PICS-1^RRM wild type and F217E alone, HiLoad 16/600 Superdex 75; 20 mM Tris, 200 mM NaCl (pH 8.5 in the methods, pH 7.5 in the legend)
[6] = molecular target: B8; test: ITC; MicroCal ITC200, 25 °C; 20 mM Tris pH 8.5, 200 mM NaCl or 20 mM MES pH 6.5, 200 mM NaCl; 1-2 mM protein or peptide in the syringe titrated into 30-50 μM protein in the cell; one-site model; Kd mean ± SD of a minimum of two experiments; conditions: both partners purified
TOFU-6^RRM D26A/W27A = molecular target: T5, TOFU-6^RRM D26A/W27A; test: as above; conditions: both partners purified
PICS-1^5-282 = molecular target: T6, PICS-1^5-282; test: SEC; ERH-2 and TOFU-6^RRM mixed with PICS-1 constructs, Superose 6 Increase 10/300 GL, 20 mM Tris hydrochloride pH 8.5, 200 mM NaCl; fractions on SDS-PAGE; conditions: both partners purified
[7] = molecular target: B9; test: ITC; MicroCal ITC200, 25 °C, 20 mM Tris pH 8.5, 200 mM NaCl or 20 mM MES pH 6.5, 200 mM NaCl; 1–2 mM in the syringe into 30–50 μM in the cell; one-site binding model; conditions: both partners purified
[8] = molecular target: T7, ERH-2^1-103-(Gly-Ser-Ser)7-PICS-1^180-20 …; test: ITC; MicroCal ITC200, 25 °C; 20 mM Tris pH 8.5, 200 mM NaCl or 20 mM MES pH 6.5, 200 mM NaCl; 1-2 mM protein or peptide in the syringe titrated into 30-50 μM protein in the cell; one-site model; Kd mean ± SD of a minimum of two experiments; conditions: both partners purified

Binder: B1
Kd (ERH-2 [1]): 3.2 µM

Binder: B2
stoichiometry N (ERH-2 D67A): 0.8 | stoichiometry N (ERH-2 [2]): 0.7

Binder: B3
binding result [3]: binds | binding result [4]: binds

Binder: B4
binding result [5]: binds | stoichiometry N [6]: 1.1 | Kd (TOFU-6^RRM D26A/W27A): 30 µM | stoichiometry N (TOFU-6^RRM D26A/W27A): 0.7

Binder: B5
Kd [6]: 17 µM | stoichiometry N [6]: 1.1

Binder: B6
Kd [6]: 21 µM | stoichiometry N [6]: 1.2

Binder: B7
stoichiometry N [6]: 0.7

Binder: B8
binding result [3]: binds

Binder: B9
binding result (PICS-1^5-282): binds

Binder: B10
Kd [7]: 0.57 µM

Binder: B11
stoichiometry N [8]: 1.3 | stoichiometry N (ERH-2 [2]): 1

Binder: B12
Kd [8]: 4.9 µM | stoichiometry N [8]: 0.9 | stoichiometry N (ERH-2 [2]): 0.9
